Data published in article PMC9157036.

Molecular target: ferritin-based 24-meric nanoparticle with N-terminal protein A tag
Assay: SPR
Conditions: Fc fusion

## RBD (residues 331aa-524aa) of the SARS-CoV-2 Omicron spike protein with an Fc tag in the C-terminus (from UniProt P0DTC2 331-524)
  Kd: 0.187 µM
